{"source": "paper PMC3623637", "key": {"purified protein [1]": {"substrate": "Cc1cc(=O)oc2cc(NC(=O)[C@@H](N)CC(=O)O)ccc12", "assay": "purified protein", "conditions": "50 mM Tris-HCl pH 7.5, 37°C"}, "purified protein [2]": {"substrate": "Cc1cc(=O)oc2cc(NC(=O)[C@@H](N)CCC(=O)O)ccc12", "assay": "purified protein", "conditions": "50 mM Tris-HCl pH 7.5, 37°C"}}, "data": [{"protein": "DNPP-1 (Caenorhabditis elegans) (protein) MAAALKPSAPEIRKAAQEFINYLNKAVTPFHATQEVKDRLLQAGFTELPESGHWDIQPTSKYFVTKNRSAILAFAVGGSYKPGSGFSIVVGHTDSPCLRVKPISHQKSDKFLQVGVSTYGGGIWRTWFDRDLSVAGLVIVKNGEKLQHKLIDVKKPVLFIPNLAIHLETDRTTFKPNTETELRPILETFAAAGINAPQKPESTGFADPRNITNNHHPQFLGLIAKEAGCQPEDIVDLDLYLYDTNKAAIVGMEDEFISGARLDNQVGTYTAISGLLESLTGESFKNDPQIRIAACFDNEEVGSDSAMGASSSFTEFVLRRLSAGGSTTAFEEAIGKSMLISADQAHATHPNYSAKHEENHRPAFHGGVVVKVNVNQRYATTSTTHAALKQVAFEAQVPLQVVVVRNDSPCGSTVGPILATKLGLQTVDVGCPQLAMHSIREFADTSSIYQATTLYSTFYERLSTVLSNMQ", "values": [{"measurement": "Km", "setting": "purified protein [1]", "result": "13.58 10^-3 mM"}, {"measurement": "kcat/Km", "setting": "purified protein [1]", "result": 10300, "unit": "M⁻¹ s⁻¹"}, {"measurement": "kcat/Km", "setting": "purified protein [2]", "result": 15300, "unit": "M⁻¹ s⁻¹"}]}]}
